Data on 1 protein can be found in patent publication US20050008648A1 (BOARD OF TRUSTEES OF THE UNIVERSITY OF ILLINOIS, published 2005).

This data set concerns the molecule itself. The data set is described as follows: X-ray crystal structure.

Description: Crystals were transferred to a cryoprotectant solution that in the case of the citrate condition was made of mineral oil (Sigma) while for the crystals grown in PEG it was composed of the mother liquor and 10% (w/v) xylitol-10% (w/v) sucrose. Once the crystals were mounted in loops, they were frozen by directly immersing them in liquid nitrogen. X-ray data were collected at the Advanced Photon Source using the BioCARS beamlines BM-C and BM-D, and the SERCAT beamline ID-22.
Data for the MAD data set were collected to 2.3 Å resolution. A partially built model into the MAD electron density was used to solve the tetragonal crystals. […] The ligands were refined without conformational torsion-angle restraints in order to prevent bias towards a particular ring conformation for the sugars.

B1: Human deoxycytidine kinase (dCK) (enzyme)
chain: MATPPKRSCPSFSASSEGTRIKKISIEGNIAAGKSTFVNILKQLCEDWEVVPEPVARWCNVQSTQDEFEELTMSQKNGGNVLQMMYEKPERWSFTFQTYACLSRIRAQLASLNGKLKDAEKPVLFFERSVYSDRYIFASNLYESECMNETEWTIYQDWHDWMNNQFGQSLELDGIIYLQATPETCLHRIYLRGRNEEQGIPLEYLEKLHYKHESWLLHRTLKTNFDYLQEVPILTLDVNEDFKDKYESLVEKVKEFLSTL
notes: Made in E. coli with a His-tag that was cleaved by thrombin; The selenomethionine-substituted protein was used for MAD phasing; Residues 1 to 19 were not seen in the electron density; Crystallized with dC, ara-C or gemcitabine and ADP; also called human dCK; wild type dCK
B1: the binding result is “binds”.
